Test results reported in the supplement of paper PMC7877785.
± gives the uncertainty stated by the source.

Experiment: self-splicing fitness, log relative to wild type (ln ratio); higher = more splicing; Tetrahymena group I intron in knt gene, E. coli kanamycin selection, DiMSum; sequences stand for … in CUCUCU…GGAGGGAAAAGUUAUCAGGCAUGCACCUGGUAGCUAGUCUUUAAACCAAUAGAUUGCAUCGGUUUAAAAGGCAAGACCGUCAAAUUGCGGGAAAGGGGUCAACAGCCGUUCAGUACCAAGUCUCAGGGGAAACUUUGAGAUGGCCUUGCAAAGGGUAUGGUAAUAAGCUGACGGACAUGGUCCUAACCACGCAGCCAAGUCCUAAGUCAACAGAUCUUCUGUUGAUAUGGAUGCAGUUCACAGACUAAAUGUCGGUCGGGGAAGAUGUAUUCUUCUCAUAAGAUAUAGUCGGACCUCUCCUUAAUGGGAGCUAGCGGAUGAAGUGAUGCAACACUGGAGCCGCUGGGAACUAAUUUGUAUGCGAAAGUAUAUUGAUUAGUUUUGGAGUACUCGUGGUCG
Summary of the method: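 The eight P1ex-region nucleotides of an intron in the knt kanamycin-resistance gene on pET-22b(+) were all randomised and the library put into E. coli BL21(DE3). Six replicate transformations were grown overnight at 37°C or 30°C on LB agar with or without 25 μg/mL kanamycin, together with 100 μg/mL carbenicillin, 50 μM IPTG and 0.2% rhamnose. Colonies were pooled and amplicon-sequenced on an Illumina HiSeq 2500. Fitness from DiMSum is the error-weighted combination of wild-type-normalised replicate fold changes, kanamycin over none.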

Sequence	self-splicing fitness (ln) (30 °C)	self-splicing fitness (ln) (37 °C)
AAUUAGCAAUAUUACGGAAA	-1.83 ± 0.29	-1.72 ± 0.49
AAUUAGCAAUAUUACGGACU	-0.43 ± 0.087	0.51 ± 0.14
AAUUAGCAAUAUUACGGAGG	-3.68 ± 0.39	-1.87 ± 0.25
AAUUAGCAAUAUUACGGCGC	-0.632 ± 0.13	-0.211 ± 0.13
AAUUAGCAAUAUUACGGGGC	-2.38 ± 0.21	–
AAUUAGCAAUAUUACGUCAG	-1.16 ± 0.14	-1.47 ± 0.24
AAUUAGCAAUAUUACGUGGU	-4.47 ± 0.26	-2.18 ± 0.14
AAUUAGCAAUAUUACGUGUC	-3.59 ± 0.29	-1.79 ± 0.2
AAUUAGCAAUAUUACGUUGA	-2.74 ± 0.15	-1.55 ± 0.11
ACAAAGCAAUAUUACGAAAC	–	-0.88 ± 0.2
ACAAAGCAAUAUUACGACUC	-0.72 ± 0.11	-0.304 ± 0.12
ACAAAGCAAUAUUACGAUAG	-3.47 ± 0.17	-2.21 ± 0.19
ACAAAGCAAUAUUACGAUGU	-3.56 ± 0.11	-2.43 ± 0.12
ACAAAGCAAUAUUACGCAAC	-2.37 ± 0.17	-0.412 ± 0.17
ACAAAGCAAUAUUACGCAGA	-2.12 ± 0.14	-1.06 ± 0.093
ACAAAGCAAUAUUACGCGGC	-2.91 ± 0.13	-3.04 ± 0.21
ACAAAGCAAUAUUACGCUAG	-1.53 ± 0.072	-1.72 ± 0.086
ACAAAGCAAUAUUACGGCCA	-1.13 ± 0.14	-0.00489 ± 0.11
ACAAAGCAAUAUUACGGCGU	-1.78 ± 0.075	-1.17 ± 0.093
ACAAAGCAAUAUUACGGGAC	-3.25 ± 0.17	-1.96 ± 0.14

Sequence	self-splicing fitness (ln) (30 °C)	self-splicing fitness (ln) (37 °C)
ACAAAGCAAUAUUACGGGCU	-1.07 ± 0.055	-0.972 ± 0.088
ACAAAGCAAUAUUACGUAAU	-2.62 ± 0.061	-1.14 ± 0.074
ACAAAGCAAUAUUACGUAGG	-2.88 ± 0.1	-1.55 ± 0.12
ACAAAGCAAUAUUACGUGGG	-3.35 ± 0.13	-2.47 ± 0.14
ACAAAGCAAUAUUACGUGUC	-3.69 ± 0.14	-3 ± 0.16
ACAAAGCAAUAUUACGUGUG	-1.91 ± 0.052	-0.905 ± 0.057
ACAAAGCAAUAUUACGUUCA	-1.2 ± 0.068	-0.708 ± 0.076
ACACAGCAAUAUUACGAACU	-0.798 ± 0.05	-0.493 ± 0.068
ACACAGCAAUAUUACGAAGC	-4.18 ± 0.22	-2.8 ± 0.21
ACACAGCAAUAUUACGAAUA	-2.21 ± 0.13	-1.6 ± 0.11
ACACAGCAAUAUUACGACUG	-0.972 ± 0.047	-0.67 ± 0.06
ACACAGCAAUAUUACGAGCA	-1.44 ± 0.12	-1.45 ± 0.13
ACACAGCAAUAUUACGAUAC	-2.58 ± 0.26	-2.69 ± 0.25
ACACAGCAAUAUUACGCAGU	-3.84 ± 0.14	-2.73 ± 0.12
ACACAGCAAUAUUACGCCUU	-1.62 ± 0.076	-0.434 ± 0.091
ACACAGCAAUAUUACGCGCG	-0.558 ± 0.082	0.0666 ± 0.091
ACACAGCAAUAUUACGCGGG	-2.43 ± 0.075	-1.69 ± 0.091
ACACAGCAAUAUUACGCGUG	-2.25 ± 0.074	-1.68 ± 0.081
ACACAGCAAUAUUACGCUCA	-0.416 ± 0.087	-0.203 ± 0.093
ACACAGCAAUAUUACGGACC	-1.99 ± 0.093	-0.524 ± 0.11

Sequence	self-splicing fitness (ln) (30 °C)	self-splicing fitness (ln) (37 °C)
ACACAGCAAUAUUACGGCCA	-1.18 ± 0.12	-1.17 ± 0.11
ACACAGCAAUAUUACGGGUG	-1.31 ± 0.053	-0.999 ± 0.065
ACACAGCAAUAUUACGGUGA	-1.31 ± 0.068	0.17 ± 0.077
ACACAGCAAUAUUACGUCCC	-1.16 ± 0.098	-0.00572 ± 0.12
ACACAGCAAUAUUACGUCGG	-1.65 ± 0.052	-1.16 ± 0.071
ACACAGCAAUAUUACGUGAG	-1.02 ± 0.05	0.121 ± 0.074
ACACAGCAAUAUUACGUUCU	-0.986 ± 0.06	-0.532 ± 0.068
ACAGAGCAAUAUUACGAGAG	–	-2.6 ± 0.28
ACAGAGCAAUAUUACGCAUA	-3.96 ± 0.31	-1.8 ± 0.2
ACAGAGCAAUAUUACGCGAU	-3.54 ± 0.24	-3.29 ± 0.3
ACAGAGCAAUAUUACGGAAU	-4.08 ± 0.29	-1.86 ± 0.31
ACAGAGCAAUAUUACGGACU	-2.73 ± 0.18	-1.07 ± 0.14
ACAGAGCAAUAUUACGGCUC	-3.09 ± 0.16	-2.37 ± 0.22
ACAGAGCAAUAUUACGGGGA	-4.66 ± 0.34	-3.55 ± 0.25
ACAGAGCAAUAUUACGGGUG	-2.96 ± 0.15	-1.43 ± 0.12
ACAGAGCAAUAUUACGGUUU	-3.11 ± 0.2	-1.81 ± 0.16
ACAGAGCAAUAUUACGUACG	-3.9 ± 0.23	-2.3 ± 0.2
ACAGAGCAAUAUUACGUGAU	-2.97 ± 0.1	-2.08 ± 0.15
ACAGAGCAAUAUUACGUUAU	-3.59 ± 0.19	-3 ± 0.25
ACAUAGCAAUAUUACGACAA	-0.573 ± 0.12	-0.73 ± 0.12
